The results in this text go back to patent publication US7838495B2, “Compositions and methods of use of EPB1, and ErbB3 binding protein” (University of Maryland, Baltimore, priority 2007, dated 2010).

The subject of the assay is androgen-responsive genes. As to the kind of experiment: Microarray gene expression profiling of LNCaP cells stably transfected with EBP1. It counts as cell-based, human. The settings on record: EPB1-overexpressing LNCaP cells vs controls. The procedure: Microarray Analysis: First and second strand cDNA were synthesized from 5-15 μg of total RNA at Genome Explorations (Nashville, Tenn.) using the SuperScript Double-Stranded cDNA Synthesis Kit (Gibco Life Technologies, Gaithersburg, Md.) and an oligo-dT24-T7 (5′-GGCCAGTGAATTGTAATACGACTCACTATAGGGAGGCGG-3′) (SEQ ID NO: 3) primer according to the manufacturer's instructions. cRNA was synthesized labeled with biotinylated UTP and CTP by in vitro transcription using the T7 promoter-coupled, double-stranded cDNA as template and the T7 RNA Transcript Labeling Kit (ENZO Diagnostics Inc., Farmingdale, N.Y.). The fragmented cRNA was hybridized for U133A oligonucleotide arrays (Affymetrix, Santa Clara, Calif.) containing ˜33,000 full-length annotated genes, together with additional probe sets designed to represent EST sequences. The arrays were then stained with phycoerythrein-conjugated streptavidin (Molecular Probes, Eugene, Oreg.), and the fluorescence intensities were determined using a laser confocal scanner (Hewlett-Packard, Palo Alto, Calif.). The scanned images were analyzed using Microarray software (Affymetrix). Sample loading and variations in staining were standardized by scaling the average of the fluorescent intensities of all genes on an array to constant target intensity for all arrays used. The signal intensity for each gene was calculated as the average intensity difference, represented by [E(PM−MM)/(number of probe pairs)], where PM and MM denote perfect-match and mismatch probes. Data analysis was conducted using Microarray Suite 5.0 (Affymetrix) following user guidelines. Only genes with a minimum expression level of 500 were included in this analysis. […] AR-regulated genes include the Androgen Receptor (AR), PSA (kallikrein 3), Kallikrein 2, POV-1, TMPRSS2, and prostate-derived factor.
Ectopic expression of EPB1 downregulates androgen-regulated genes: Gene expression profiling of LNCaP cells stably transfected with EBP1 was used to determine the range of androgen-dependent genes affected by EPB1 overexpression. These cells overexpress EPB1 protein between two- and three-fold (Zhang et al., 2002, Repression of Androgen Receptor Mediated Transcription by the ErbB-3 Binding Protein EPB1, Oncogene, 21: 5609-5618). Changes in gene expression were measured using microarray analysis of 33,000 transcripts on the Affymetrix U133A chip. To compile a list of differentially regulated genes, only those genes that were activated or repressed at least 3-fold (p<0.05, 500 minimum expression units) were included. […] Forty-one genes were induced and 126 were repressed. Seventy-two of these genes have HUGO approved names. […] These include the Androgen Receptor (3.7 fold decrease), PSA (3.7 fold decrease) as previously reported (Zhang et al., 2002, Repression of Androgen Receptor Mediated Transcription by the ErbB-3 Binding Protein EPB1, Oncogene, 21: 5609-5618), Kallikrein 2 (3.2 fold decrease), POV-1 (5.0 fold decrease), TMPRSS2 (3.2 fold decrease), and prostate-derived factor (3.2 fold decrease). The Kallikrein 2 gene is regulated by AR, predominantly expressed in prostate tissue, secreted by LNCaP cells, and 78% homologous to PSA. […] The TMPRSS2 gene is androgen-regulated and also highly expressed in prostate and prostate cancer (Afar et al., 2001, Catalytic Cleavage of the Androgen-Regulated TMPRSS2 Protease Results in its Secretion by Prostate and Prostate Cancer Epithelia, Cancer Res., 61:1686-1692).

B1: EBP1: ErbB3 binding protein (SEQ ID NO: 2), AR corepressor, here ectopically expressed in cancer cells by stable transfection of an expression plasmid (protein, listed as Homo sapiens)
chain: MSGEDEQQEQTIAEDLVVTKYKMGGDIANRVLRSLVEASSSGVSVLSLCEKGDAMIMEETGKIFKKEKEMKKGIAFPTSISVNNCVCHFSPLKSDQDYILKEGDLVKIDLGVHVDGFIANVAHTFVVDVAQGTQVTGRKADVIKAAHLCAEAALRLVKPGNQNTQVTEAWNKVAHSFNCTPIEGMLSHQLKQHVIDGEKTIIQNPTDQQKKDHEKAEFEVHEVYAVDVLVSSGEGKAKDAGQRTTIYKRDPSKQYGLKMKTSRAFFSEVERRFDAMPFTLRAFEDEKKARMGVVECAKHELLQPFNVLYEKEGEFVAQFKFTVLLMPNGPMRITSGPFEPDLYKSEMEVQDAELKALLQSSASRKTQKKKKKKASKTAENATSGETLEENEAGD
modifications: FLAG tag
Consider B1, for which the “Androgen Receptor expression, fold decrease” value is listed as 3.7 fold; the “Kallikrein 2 expression, fold decrease” value was determined as 3.2 fold; the “POV-1 expression, fold decrease” value is 5.0 fold; the “PSA expression, fold decrease” value amounted to 3.7 fold. For the same molecule, the “TMPRSS2 expression, fold decrease” value is recorded as 3.2 fold and the “prostate-derived factor expression, fold decrease” value worked out at 3.2 fold.
